This is an account of results in patent publication US20100035361A1 (published 2010).

First the molecules themselves.
B1: anti-Her2 two helix binder (SEQ ID NO. 23) (designed binder)
chain: VENKCNKEMRNAYWEIALLPNLNNQQKRAFIRSLYDDPX
modifications: C^1 = hindered cysteine (penicillamine) at 39, disulfide linkage to natural Cys 5
B2: anti-Her2 two helix binder (SEQ ID NO. 12), peptide with a covalent bridge between two E^1 residues (designed binder)
chain: B1 chain with E8X, E15X, X39C
modifications: E^1 = O-allyl glutamic acid at 8 and 15 joined by a covalent bridge (ring closing metathesis)
notes: Cys at 5 and 39
B3: anti-Her2 two helix binder (SEQ ID NO. 19) (designed binder)
chain: B1 chain with C5X, X39C
modifications: C^1 = hindered cysteine (penicillamine) at 5, disulfide linkage to natural Cys 39
B4: anti-Her2 two helix binder (SEQ ID NO. 20) (designed binder)
chain: B1 chain with C5X, X39C
modifications: C^2 = extended cysteine (homocysteine) at 5, disulfide linkage to natural Cys 39

Where a chain is given by its changes, count along the chain named. Non-standard residues stand in square brackets, D forms with d. No end group written: not given here. Aib = CC(C)(N)C(=O)O

One experiment concerns the target T1, extracellular domain of the Her2/neu antigen as a conjugate with the Fc region of human IgG (Fc-Her2), R&D … (human, UniProt P04626 23-652).
T1 construct: extracellular domain; Bought reagent; not shown: Fc region of human IgG
Nature of the experiment: binding analysis (method not given; SPR per Example 2).
For VENKCNK[Aib]MRN[Aib]YWE[Aib]ALLPNLNNQ[Aib]KRA[Aib]IRS[Aib]YDDPC-NH2 (designed binder, cysteine pairing not given here, Cys at 5 and 39) [anti-Her2 two helix binder (SEQ ID NO. 26)], the binding result is reported as “no binding”. Turning to VENKCNKEMRNAYWEIALLPNLNNQ[Aib]KRA[Aib]IRS[Aib]YDDPC-NH2 (designed binder, cysteine pairing not given here, Cys at 5 and 39) [anti-Her2 two helix binder (SEQ ID NO. 25)], the binding result is on record as “no binding”. Regarding VENKCNK[Aib]MRN[Aib]YWE[Aib]ALLPNLNNQQKRAFIRSLYDDPC-NH2 (designed binder, cysteine pairing not given here, Cys at 5 and 39) [anti-Her2 two helix binder (SEQ ID NO. 24)], the binding result is “no binding”.

For a further experiment, the target named is T1, extracellular domain of the Her2/neu …. Nature of the experiment: SPR (Biacore) relative binding, about 5 ug/ml peptide. For orientation: Surface plasmon resonance follows binding to a sensor surface in real time, without labels.
Protocol: Binding interactions between the binder and the Her2/neu antigen was measured in vitro using surface plasmon resonance (SPR) detection on a BIAcore™ 3000 instrument (Piscataway, N.J.). The extracellular domain of the Her2/neu antigen was obtained as a conjugate with the Fc region of human IgG (Fc-Her2) from R&D Systems and covalently attached to a CM-5 dextran-functionalized sensor chip (BIAcore™) pre-equilibrated with HBS-EP buffer (0.01M HEPES pH 7.4, 0.15M NaCl, 3 mM EDTA, 0.005% v/v surfactant P20) at 10 μL/min and subsequently activated with 1-ethyl-3-[3-dimethylaminopropyl]carbodiimide hydrochloride (EDC) and N-hydroxysuccinimide (NHS). The Fc-Her2 (5 μg/ml) in 10 mM sodium acetate (pH 5.5) was injected onto the activated sensor chip until the desired immobilization level was achieved (2 min). Residual activated groups on the sensor chip were blocked by injection of ethanolamine (1 M, pH 8.5). Any non-covalently bound conjugate was removed by repeated (n=5) washing with 2.5 M NaCl₂, 50 mM NaOH.
A second flow cell on the same sensor chip was treated identically, except with no Fc-Her2 immobilization, to serve as a control surface for refractive index changes and non-specific binding interactions with the sensor chip. Prior to the kinetic study, binding of the target analyte was tested on both surfaces and a surface stability experiment was performed to ensure adequate removal of the bound analyte and regeneration of the sensor chip following treatment with 2.5 M NaCl, 50 mM NaOH. SPR sensorgrams were analyzed using the BiaEval (BIAcore) software. The robustness of the kinetic model was determined by evaluation of the residuals and standard error for each of the calculated kinetic parameters, the “goodness of the fit” (χ2<10), and a direct comparison of the modeled sensorgrams to the experimental data.
For the molecule B1, the binding result is “binds”. The same measure, in the same setting: in the case of VENKCNKEMRNAYWEIALLPNLNNQQKRXFIRSLYDDPC (designed binder, X = alpha amino isobutyric acid (Aib) at 29, Cys at 5 and 39) [anti-Her2 two helix binder (SEQ ID NO. 27), peptide with Ala29Aib] it was “binds”; in that of B2, “binds”. Still for that read-out and setting: with B3 the entry was “binds”. Consider B4, for which the binding result is recorded as “binds”.
